# Test: yeast display, Sf9 membrane polyspecificity reagent, FACS + sequencing; frameworks hold sequencing errors
# Method in brief: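 Polyreactivity labels are assigned by the sorting gate from which each nanobody was recovered. The gates were low and high (top ~1%), set on anti-HA fluorescence for expression and streptavidin fluorescence for reagent binding. Before sorting, galactose-induced (36–48 hours) yeast display cells were stained for 1 hour at 4 °C with 10% biotinylated, detergent-solubilized Sf9 membrane reagent.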
row,Sequence,polyreactivity (PSR sort gate)
1,QVQLVESGGGLVQAGGSLRLSCAASGRTFDDNAMGWYRQAPGKERELVASISSGTSTNYADSVKGRFTISRDNAKNTVYVQMNCLKPEDTAVYYCNAYGPIWYTAVLGVGRYYGWTDYWGQGTQVTVSS,low polyreactivity
2,QVQLVESGGGLVQAGGSLRLSCAASGSTFNTNAMGWYRQAPGKERELVAAITSSGGGTYYADSVKGRFTISRDNAKNTVYLQMNSLKPEDTAVYYCNAVSGWYNSITYDYWGQGTQVTVSS,high polyreactivity
3,QVQLVESGGGLVQAGGSLRLSCAASGRTFSKYAMGWYRQAPGKERELVAAITRSGSSTYYADSVKGRFTISRDNAKNTVYLQMNCLKPEDTAVYYCAADRYLRSSGSAPDYGYWGQGTQVTVSS,low polyreactivity
4,QVQLVESGGGLVQAGGSLRLSCAASGRIFGKYAMGWYRQAPGKERELVAVITSRDGRTYYADSVKGRFTISRDNAKNTVYLQMNSLIPEDTAVYYCAADYWTGITPDAIGDYWGQGTQVTVSS,low polyreactivity
5,QVQLVESGGGLVQAGGSLRLSCAASGRIFPANAMGWYRQAPGKERELVAGITWRGDSTYYADSVKGRFTISRDNAKNTVYLQMNSLKPEDTAVYYCAATFRYTKLYYWGHGTQVTVSS,low polyreactivity
6,QVQLVESGGGLVQAGGSLRLSCSASGSTFSENAMGWYRQAPGKERELVAAISWGGGSTYYADSVKGRFTISRDKAKNTVYLQMNSLKPEDTSVYYCNADVFDDYCDFESDDWGQGTQVTVSS,low polyreactivity
7,QVQLVESGGGLVQAGGSLRLSCAASGRIFAVYAMGWYRQAPGKERELVAAIRWSGVRTYYADSVKGRFTISRDNAKNTVYLQMNSLKPEDTAVYYCAAEYSGQYYSPVSFLYDYWGQGTQVTVSS,high polyreactivity
8,QDQLVESGGGLVQAGGSLRLSCAASGFIFSPYAMGWYRQAPGKERELVAAINGGGRTYYADSVKGRFTISRDNAKNTVYLQMNILKPEDTAVYYCAVDPISQGHMDYWGQGTLVTVSS,low polyreactivity
9,QVQLVESGGGLVQAGGSLRLSCAASGSTFYPNSMVWYRQAPGKERELVAAISRGTRTKYADSVKGRFTISRDNAKNSVYLQKNSLKPEDTAVYYCAADTGTGLDWGQGTQVTVSS,high polyreactivity
10,QVQLVESGGGLVQAGGSLRLSCAASGITFYINAMGWYRQAPAKERELVAVIDSRGSSTFYADSVKGRFTISRDNAKNTVYLLMNSLKPEDTAVYYCAVEGYPGRYRDPGDLYYYWGQGTQVTLSS,low polyreactivity
11,QVQLVESGGGLVQAGGSLRLSCAASGRIFPYNAMGWYRQAPGKERELVATNTSGRSTYYADSVKGRFTISRDNAKNTVDVPLNSLKPEDTAVYYCAARYPSIYYYRYDYWGQGTQVTVSS,high polyreactivity
12,QVQLVESGGGLVQAGRSLRLSCAASGRIFSYNAMGWYRQAPGKETELVAAITFSGGRTYYADSVKGRFTISRDNAKNTVYLQMNSLKPEDTAVYYCNAYWQGYGYDYWGQGTQVTVSS,low polyreactivity
13,QVQLGESGGGLVQAGGSLRLSCAASGRILSVYVMGWYRQAPGKERELVAAIRRGGYTYYADSVKGRFTISRDNAKNTVYLQMNSLKQEDTAVYYCNARQRPPPYYYWGQGTQLTVSS,high polyreactivity
14,QVQLVESGGGLVQAGGSLRLSCAASGNIFGAYAMGWYRQAPGKERELVARINSGAITNYADSVKGRFTISRDNAKNTVYLQMNSLKPEDTAVYYCNKDTYYAGSYLDYDYWGQGTQVTVSS,low polyreactivity
15,QVQLVESGGGLVQAGGSLRLSCAASGSTFVVNVMGWYRQAPGKERELVAAITYRSGSTYYADSVKGSFTISRDNAKNTVYLQMNSLKPEDTAVYYCAAGYYSRYYVAFEYYYWGQGTQVTVSS,high polyreactivity
16,QVQLVESGGGLVQAGGSLRLSCAASGSIFGPYAMGWYRQAPGKERELVASITNSGSTYYADSVKGRFTISRDNAKNTVYLQMNSLKPEDTAVYYCAVDERTWINDPEEYDYWGQGTQVTVSS,low polyreactivity
17,QVQLVESGGGLVQAGGSLRLSCAASGRTFVYYAMGWYRQAPGKERELVATITRSGGSTYYADSVKGRFTISRDNAKNTVYLQMNSLKPEDTAVYYCAVLYWRPGYDYWGQGTQVTVSS,high polyreactivity
18,QVHLVESGGGLVQAGGSLRISCAASGFTFRKYSMGWYRQAPGKERELVAGITSGGSTNNADSVKGRFTISRDNAKNTVYLQMNSLKPEDTAVYYCNAARYYAYIGDYWGQCTQVTVSS,high polyreactivity
19,QVQLVESGGGLVQAGGSLRLSCYASGFIFHSYAMGWYRQAPGKERELVASISRGGGSTYYADSVKGRFTISRDNAKNTVYLQKNSLKPEDTPVYYCNAVWRSNSRFDYWGQCTQVTVSS,high polyreactivity
20,QVQLVESGGGLVQAGGSLRLSCAASGLTFNSYDMGWYRQAPGKERELVAAISSGGVLPNYADSVKGRFTISRDNAKNTVYLQMNSLKPEDTAVYYCAAGYEYDVSDFDYWGQGTQVTVSS,low polyreactivity
21,QVQLGESGGGLVQAGGSLRLSCAASGSTFPRNAMGWYRQATGKERELVATITSSGGGTYYADSVKGRFTISRDNAKITVYLQMNSLKPEHTAVYYCNADGPAGDAFDYWGQGTQVTVSS,low polyreactivity
22,QVQLVESGGGLVQAGGSLRLSCAASGRTFYPYVMGWYRQAPGKEREFVAAISGTGGSTYYADSVKGRFTISRDNAKNTVYLQMNSLKPEDTAVYYCNRRIPYTSYSYGYWGQGTQVTVSS,high polyreactivity

row,Sequence,polyreactivity (PSR sort gate)
1,QVQLVESGGGLVQAGGSLRLSCAASGSTFILNAMGSYRQAPGKERELVAAISLSGGSTYYADSVKGRFTISRDNAKNTVYLQMNSQKPEDTAVYYCAAEQWYDNYLEYDYWGQGTQVTLSS,high polyreactivity
2,QVQLVESGGGLVQAGGSLRLSCAASASILGSNAMGWYSQAPGKEREFVAAITWTGGSTYYADSVKGRFTISRDNAKNTVYLQMNSLKPEDSAVYYWAKDVKYVKMDDWGQGTQVTVSS,low polyreactivity
3,QVQLVESGGGLVQAGGSLRLSCAASGRTFARYAMGWYRQAPGKERELVAAISRGGTTNYADSVKGRFTISRDNAKNTVYLQMNSLKPEDTAVYYCNRDFHLIHLSSARLDYWGQGTQVTVSS,low polyreactivity
4,QVKLVESAAGLVQPGGSHRLSCAASGRIFSYYAMGWSRQAPGKDRELVAAISRTGGTTYYADSVKGRFTSSRDNAKNTVYLQMNSLKPEDTAVYYCNAVKAPYLSYDYWGKGTQVTVSS,high polyreactivity
5,QVQLVESGGGLVQAGGSLRLSCAASGSTFDLYAMGWYRQAPGKERELVAAISSSGGRTYYADAVKGRFTISRDNAKNTVYLQMNSLKPEDTAVYDCAAVGYKYSRYDYWGQGTQVTVSS,high polyreactivity
6,QDQLVESGGGLVQAGGSLRLSCAASGSTIPISVRGWYRQAPGKERELVAAITYSGGSTYYADSVKGRFTISRDNAKNTVYLQMNSLKPEDTAVYYCAAGVYRWHYLYKYTQRRVEYWGQGTQVTVSS,high polyreactivity
7,QVQLVESGGGLVQAGGSLRLSCAASGSILFTNAMGWYRQAPGKERELVAAISSGGSTYYADSVKGRFTISRDNAKNTVYLQMNSLKPEDSAVYYCAADHLNVGREYVEYDYWGQGTQVTVSS,low polyreactivity
8,QVQLVESGGGLFQAGGSLRLSCAASGSTFDVNTMGGYRQAPGKERELVAAIRLRGGSTYYADSVKGRFTISRYNAKNTVYLQMNSLKPEDTAVYYCAARYPWVYYDFDYWGQGTQVTVSS,low polyreactivity
9,QVQLVESGGGLVQAGGSLRLSCAASGSTFGFNAMGWYRQAPGKERELVAAINSGSTTYADSVKGRFTISRDNAKNTVYLQMNSLKPEDTAVYYCAARYRYRYGYYYWGQGTQVTVSS,high polyreactivity
10,QVQLVESGGGLVQAGGSLRLSCAASGRICVINAMGWYRQAPGKERELVATIDRGGSTNYADSVKGRFSISRDNAKNTVYLQMNSLKPEDTAVYYCAAGVVGKRSRTGYYWGQGTQVTVSS,low polyreactivity
11,QVQLVESGGGLVQAGGSLRLSCAASGRIFIGNAMGWYRQAPGKERELVAAITWSGDDSTYYADSVKGRFTISRDNAKITVYLQMNSLKTEDTAVYYCAAYSYYYEYNYWGQGTQVTVSS,low polyreactivity
12,QVQLVESGGGLVQAGGSLRLSCAASGYTFDGYAMGWYRQAPGKERELVAAINSGGGTYYADSVKGRFTISRDNAKNTVYLQMNSLKPEDTAVYYCAKYTYDYWGQGTQVTVSS,low polyreactivity
13,KVQLVESGGGLVQAGGSLRLSCAASGFTFRSYAMGWYRQAPGKERDFVAAITINGGSTYYADSVKGRFTISRDNAKNTVYLQMNSLKPEDTAVYYCAAGTLYRIRGYPLWQYDYWGQGTQVTVSS,high polyreactivity
14,QVQLVESGGRLVQAGGSLRLSCAASGSILDGNTMGWYRQAPGKEMELVAAITWDGTSTYYADSVKGRFTISRDNAKNTVYLQMNSLKPEDTAVYYCAATKGYSDQSTGYYAYIHYDYWGQGTQVTVSS,low polyreactivity
15,QVQLVESGGGLVQAGGSLRLSCAASGYNFPYYAMGWYRQAPGKERELVAGITTDGSSTYYADSVKGRFTISRDNAKNTVYLQMNSLKPEDTAVYYCYGYPGYTWGWYDYWGQGTQVTVSS,low polyreactivity
16,QVQLVESGGGLVQAGGSLRLSCAASGLIFSSYAMGWYRQAPGKERELVAAITGSGGRTYYADSVKGRFTISRDNAKNTVYLQMNSLKPEDTAVYYCAAKYPDPRYYTGYDYWGQGTQVTVSS,high polyreactivity
17,QVQLVESGGGLVQAGGSLRLSCAGSGSTFKKYPMGWYREATGKEREFVAAISRGGRTYYADSVKGRFTSSRDNAKTTVYLQMNSLNPEDTAVYYCAADTFAYQEVYYWGQGTQVTVSS,high polyreactivity
18,QVQLQESGGGQVQAGGSLRLSCAASGYISTHYFMGWYRQAPGKDREFVAGISNGSITNYADSVKGRFTISRDNARNTVYLQMNSLKPEDTAVYYGAAFEWTYVRFGYWGQGTQVTVSG,high polyreactivity
19,QVQLVESGGGLVQAGGSLRLTCAASGYTIIQYAMGWYRQAPGKERELVAGITWSGGSTYADSVKGRFTISRDNAKNTVYLQMNSLKPEATAVYYCAADDRDIYQYGTPYGSGIRYDYWGQGTQVTVSS,low polyreactivity
20,QVQLVESGGGLVQAGGSLRLSCAASGFTFLRYAMGWYRQAPGKERELVAAITGSGGSTYYADSVKGRFTISRDNAKNTVYLQMNSLKPEDTAVYYCSIVSKFTGDYGYWGQGTQVTVSS,high polyreactivity
21,QVQLVESGGGLVQAGGSLRLSCAASGSTFRWNTMGWDRQAPGKEREMVAAISYSGGITYYADSVKGRFTISRDNAKNTVYLQMNSLKPEDTAVYYCNLVAYRSYLSSYDYWGQGTQVTVSS,high polyreactivity

# Source: the nanobody polyreactivity screen of Harvey et al. (2022)
